Data on three molecules can be found in PMC3405243, “Segmental isotopic labeling of a 140 kDa dimeric multi-domain protein CheA from Escherichia coli by expressed protein ligation and protein trans-splicing” (Journal of Biomolecular Nmr, 2012).

First the molecules themselves.
B1: (S154C)P2–5 domains of CheA (domain or fragment, E. coli, UniProt P07363 154-654, looked up)
chain: CRSQSPRRIILSRLKAGEVDLLEEELGHLTTLTDVVKGADSLSAILPGDIAEDDITAVLCFVIEADQITFETVEVSPKISTPPVLKLAAEQAPTGRVEREKTTRSNESTSIRVAVEKVDQLINLVGELVITQSMLAQRSSELDPVNHGDLITSMGQLQRNARDLQESVMSIRMMPMEYVFSRYPRLVRDLAGKLGKQVELTLVGSSTELDKSLIERIIDPLTHLVRNSLDHGIELPEKRLAAGKNSVGNLILSAEHQGGNICIEVTDDGAGLNRERILAKAASQGLTVSENMSDDEVAMLIFAPGFSTAEQVTDVSGRGVGMDVVKRNIQKMGGHVEIQSKQGTGTTIRILLPLTLAILDGMSVRVADEVFILPLNAVMESLQPREADLHPLAGGERVLEVRGEYLPIVELWKVFNVAGAKTEATQGIVVILQSGGRRYALLVDQLIGQHQVVVKNLESNYRKVPGISAATILGDGSVALIVDVSALQAINREQRMANTAA
notes: CheA P2–5 domains, E. coli, amplified from genomic DNA of strain BL21, residues S154 to A654 with cysteine at the N-terminus; also called unreacted (S154C)P2–5; unreacted P2–5; source: E. coli BL21-CodonPlus (DE3)-RP, purified (chitin beads, intein cleavage); not shown: CBD-Ssp DnaB intein, N-terminal, cleaved
B2: ligated CheA P1(Q153G)/(S154C)P2–5 produced by expressed protein ligation (EPL) (enzyme, E. coli, UniProt P07363 1-654, looked up)
chain: MSMDISDFYQTFFDEADELLADMEQHLLVLQPEAPDAEQLNAIFRAAHSIKGGAGTFGFSVLQETTHLMENLLDEARRGEMQLNTDIINLFLETKDIMQEQLDAYKQSQEPDAASFDYICQALRQLALEAKGETPSAVTRLSVVAKSEPQDEGCRSQSPRRIILSRLKAGEVDLLEEELGHLTTLTDVVKGADSLSAILPGDIAEDDITAVLCFVIEADQITFETVEVSPKISTPPVLKLAAEQAPTGRVEREKTTRSNESTSIRVAVEKVDQLINLVGELVITQSMLAQRSSELDPVNHGDLITSMGQLQRNARDLQESVMSIRMMPMEYVFSRYPRLVRDLAGKLGKQVELTLVGSSTELDKSLIERIIDPLTHLVRNSLDHGIELPEKRLAAGKNSVGNLILSAEHQGGNICIEVTDDGAGLNRERILAKAASQGLTVSENMSDDEVAMLIFAPGFSTAEQVTDVSGRGVGMDVVKRNIQKMGGHVEIQSKQGTGTTIRILLPLTLAILDGMSVRVADEVFILPLNAVMESLQPREADLHPLAGGERVLEVRGEYLPIVELWKVFNVAGAKTEATQGIVVILQSGGRRYALLVDQLIGQHQVVVKNLESNYRKVPGISAATILGDGSVALIVDVSALQAINREQRMANTAA
notes: CheA, E. coli, amplified from genomic DNA of strain BL21; P1 fragment was made as a C-terminal Mxe GyrA intein-CBD fusion and P2–5 as an N-terminal CBD-Ssp DnaB intein fusion (pTWIN1); both inteins were removed before ligation; NMR samples were [2H,15N]-labeled in P1; UniProt entry is of strain K-12; the DNA was from strain BL21; also called Q153G/S154C dimer; ligated product
B3: ligated CheA P12^(2)/^(5)P3–5 produced by protein trans-splicing (PTS) in vivo (enzyme, E. coli)
chain: B2 chain with G153Q, C154S, K239G, L240S, A241C, A242F, E243N, Q244G, A245T
notes: CheA P12 domains, E. coli, amplified from genomic DNA of strain BL21, residues 1–238; stands instead of KLAAEQA of the P2-P3 linker; CheA P3–5 domains, E. coli, amplified from genomic DNA of strain BL21, residues 246–654; H6-Smt3 was removed with Ulp1; results and methods give a different order of SEC and tag removal, so its state at the SEC is open; P12 part [2H,15N]-labeled in the NMR sample; …

Changes are numbered by the printed parent chain. Numbers in names are those of the source.

For series [1], the target named is T1, ligated CheA P1(Q153)/(S154C)P2–5 produced by expressed protein ligation (EPL) (E. coli, UniProt P07363 1-654, S154C).
T1 construct: CheA, E. coli, amplified from genomic DNA of strain BL21; Inteins and CBD of both fragments were removed before ligation; also called ligation product of P1/P2–5; source: fragments expressed in E. coli BL21-CodonPlus (DE3)-RP, purified, ligated in vitro (EPL)
T1 sequence (looked up): B2 chain with G153Q
The series can be described thus: co-purification (SEC, then separation by anion exchange chromatography); EPL reaction mixture of purified fragments; Superdex 200, then ResourceQ in TEDG buffer with a 0–500 mM NaCl gradient; heterodimer separated from the ligated homodimer. To be noted: both partners purified.

In series [2] the target is B2. Described as above. To be noted: both partners purified.
Series [3] deals with the molecule itself. The series can be described thus: SEC; HiLoad 16/60 Superdex 200 prep grade, TEDG buffer (50 mM Tris pH 7.5, 0.5 mM EDTA, 2 mM DTT, 10% glycerol) with 150 mM NaCl; elution volume compared with immunoglobulin G (158 kDa).

As for B1, the binding result in series [1] and in series [2] was “binds” in each case.
A word on the stoichiometry N: it is a count of units in the complex or per binding partner. In the case of B2, the “stoichiometry N” value in series [3] was 2.
Still for that read-out and setting: the same measure for B3: 2.
